Laboratory results from paper PMC10838023 (Molecular microbiology, 2023).

Tests used:
SEC = molecular target: the molecule itself; test: SEC
GfcR-StrepII = molecular target: T1, GfcR-StrepII (Haloferax volcanii (expressed in H26), UniProt Q8NKQ2 1-210); test: EMSA
T1 sequence: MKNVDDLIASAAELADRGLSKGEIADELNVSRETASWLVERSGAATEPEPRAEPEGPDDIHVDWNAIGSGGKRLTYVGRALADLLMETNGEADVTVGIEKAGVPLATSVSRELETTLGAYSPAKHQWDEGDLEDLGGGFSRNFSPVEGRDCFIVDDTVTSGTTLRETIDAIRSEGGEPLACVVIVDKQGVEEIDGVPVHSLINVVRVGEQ

B1: GfcR-StrepII (glucose and fructose catabolism regulator GfcR of Haloferax volcanii with a C-terminal StrepII tag) (natural protein, UniProt Q8NKQ2 1-210, looked up)
chain: T1 sequence
With B1 the “stoichiometry N” value (SEC) was 4.

B2: PptfC (dsDNA)
DNA 1: GGACCTCGAAGACGTGCTGACGAACGAAACGCACGTCGAGGTGACGACCGTTCGGACCCGGTGACTCTCGGATGAACGTTTGTTAACGACCGAAACACGCAGTAACGTTCATATTCGAAAGGGTTTTTGAGCACATTTGCGTACGTTCTTTCGTAGGGGTGGCAACACTATG
DNA 2: CATAGTGTTGCCACCCCTACGAAAGAACGTACGCAAATGTGCTCAAAAACCCTTTCGAATATGAACGTTACTGCGTGTTTCGGTCGTTAACAAACGTTCATCCGAGAGTCACCGGGTCCGAACGGTCGTCACCTCGACGTGCGTTTCGTTCGTCAGCACGTCTTCGAGGTCC
B2: binds (GfcR-StrepII).
